One assay has as its target T1, 1F.
T1 construct: also called HLA-A2 / point-mutant NY-ESO peptide 1F complex on T2 cells
The assay can be described thus: flow cytometry on peptide-pulsed T2 cells, scFv 100 nM. In general terms: A flow cytometer gives signals particle by particle.

A further assay has as its target T2, 2M.
T2 construct: also called HLA-A2 / point-mutant NY-ESO peptide 2M complex on T2 cells
The assay is described as above.

For the next assay, the target named is T3, 3A.
T3 construct: also called HLA-A2 / point-mutant NY-ESO peptide 3A complex on T2 cells
The description is as above.

The target in another assay is T4, 4A.
T4 construct: also called HLA-A2 / point-mutant NY-ESO peptide 4A complex on T2 cells
The assay is described as above.

The target of another assay is T5, 5A.
T5 construct: also called HLA-A2 / point-mutant NY-ESO peptide 5A complex on T2 cells
The description is as above.

The next assay deals with T6, 6L.
T6 construct: also called HLA-A2 / point-mutant NY-ESO peptide 6L complex on T2 cells
The description is as above.

In the next assay the target is T7, 7F.
T7 construct: also called HLA-A2 / point-mutant NY-ESO peptide 7F complex on T2 cells
Described as above.

Another assay deals with T8, 8A.
T8 construct: also called HLA-A2 / point-mutant NY-ESO peptide 8A complex on T2 cells
Described as above.

The target of another assay is T9, 9A.
T9 construct: also called HLA-A2 / point-mutant NY-ESO peptide 9A complex on T2 cells
Described as above.

The target in assay [1] is T10, HLA-A*0201/β2-microglobulin/NY-ESO peptide complex (human, biotinylated with E. coli biotin ligase at the added recognition sequence (biotinylated form used in the ELISA)).
T10 construct: also called HLA/NY-ESO; HLA-A2/NY-ESO
As to the kind of experiment: screening of NYA-0001 mutant phage libraries.

Results on 9 molecules are retold here after US20230348616A1 (MIE UNIVERSITY, published 2023).

Method for 1F: (§1) The resultant was washed two times in the AIM-V medium containing 20% FBS, the concentration thereof was adjusted to an adequate level with PBS containing 5% FBS, the LIVE/DEAD Fixable Dead Cell Stain Kit (Thermo Fisher Scientific) was added thereto, and the resultant was allowed to stand at 4° C. for 30 minutes. The cells were washed 2 times in PBS containing 5% FBS, the washed cells were divided into two groups, the cells in PBS containing 5% FBS were seeded on a 96-well U-bottom microplate at 10⁵ cells/well, and the plate was subjected to centrifugation, followed by removal of the supernatant. Anti-HLA/NY-ESO scFv diluted to 100 nM with PBS containing 5% FBS was added at 25 μl/well to one of the divided cells, and the resultant was allowed to stand at 4° C. for 30 minutes. The cells were washed 2 times in PBS containing 5% FBS, Penta-His Alexa Fluor488 (QIAGEN) diluted in PBS containing 5% FBS was added at 25 μl/well, and the resultant was allowed to stand at 4° C. for 30 minutes. The cells were washed 2 times in PBS containing 5% FBS, Anti-mouse-IgG Alexa Fluor488 (Thermo Fisher Scientific) diluted in PBS containing 5% FBS was added at 25 μl/well, and the resultant was allowed to stand at 4° C. for 30 minutes. The cells were washed 2 times in PBS containing 5% FBS, immobilized with Mildform 10 N (FUJIFILM Wako Pure Chemical Corporation) overnight, and resuspended in PBS containing 5% FBS. […] The cells were washed 2 times in PBS containing 5% FBS, immobilized with Mildform 10 N (FUJIFILM Wako Pure Chemical Corporation) overnight, and resuspended in PBS containing 5% FBS. The cell suspensions were subjected to detection using a flow cytometer (CantoII, Becton Dickinson). […] The standardized gMFI indicating the binding affinity of each scFv standardized with the amount of the HLA/peptide complex on the T2 cells was determined in accordance with the following equation.
Method for 2M: as §1
Method for 3A: as §1
Method for 4A: as §1
Method for 5A: as §1
Method for 6L: as §1
Method for 7F: as §1
Method for 8A: as §1
Method for 9A: as §1

B1: NYC-0003 (scFv, not shown: small tags and cut ends)
scFv: EVQLLESGGGLVQPGGSLRLSCAASGFTFSTYQMSWVRQAPGKGLEWVSGIVSSGGSTAYADSVKGRFTISRDNSKNTLYLQMNSLRAEDTAVYYCAGELLPYYGMDVWGQGTTVTVSSGGGGSGGGGSGGGGSQSELTQPRSVSGSPGQSVTISCTGTSRDVGGYNYVSWYQQHPGKAPKLIIHDVIERSSGVPDRFSGSKSGNTASLTISGLQAEDEADYYCWSFAGSYYVFGTGTDVTVL
notes: also called 3M4E5 scFv; NYC-0003 tag adduct
On to B1, for which the “standardized gMFI” value was 3.28 in the assay with 1F; 3.73 with 2M; 4.34 with 3A; 0.76 with 4A; 0.69 with 5A; 4.14 with 6L. Also, the results for the “standardized gMFI” value with 7F, with 8A and in the assay with 9A were 3.99, 3.42 and 4.77, respectively.

B2: NYC-0004 (scFv, not shown: small tags and cut ends)
scFv: EVQLLESGGGLVQPGGSLRLSCAASGFTFSTYQMSWVRQAPGKGLEWVSGIVSSGGSTAYADSVKGRFTISRDNSKNTLYLQMNSLRAEDTAVYYCAGELLPYYGMDVWGQGTTVTVSSGGGGSGGGGSGGGGSQSELTQPRSVSGSPGQSVTISCTGTERDVGGYNYVSWYQQHPGKAPKLIIHDVIERSSGVPDRFSGSKSGNTASLTISGLQAEDEADYYCWSFAGGYYVFGTGTDVTVL
notes: also called T1 scFv; NYC-0004 tag adduct
As for B2, the “standardized gMFI” value turned out to be 3.56 with 1F; 5.66 in the assay with 2M; 4.75 with 3A; 0.65 with 5A; 3.78 in the assay with 6L; 5.07 in the assay with 7F. Also, the “standardized gMFI” value with 8A stood at 3.69; with 9A, 7.99.

B3: NYA-0060 (scFv, V domains shown)
VH: EVQLVESGGGVVQPGRSLTPSCSASGFSIRSYDIHWVRLAPGKGLEWVATISYDGSQKYFADSVKGRFTIFRDESENMVYLQMSGLRVEDTAVYHCARGSSGHYEAFDIWGQGTMVTVSS
VL: QSVLTQPPSVSAAPGQKVTISCSGSSSNIGNNYVSWYQQLPGTAPKLLIYDNNKRPSGIPDRFSGSKSGTSATLGITGLQTGDEADYYCGTWDSSLSAPWVFGGGTKVTVL
notes: NYA-0001 mutant from a phage library
As to B3, the binding result in [1] is “binds”.

B4: NYA-0068 (scFv, V domains shown)
VH: EVQLVESGGGVVQPGRSLTPSCSASGFSIRSYDIHWVRQAPGKGLEWVATISYDGSQKYFADSVKGRFTIFRDESENMVYLQMSGLRVEDTAVYHCARGSSGHYEAFDIWGQGTMVTVSS
VL: QSVLTQPPSVSAAPGQKVTISCSGSSSNIGNWYVSWYQQLPGTAPKLLIYDNNKRPSGIPDRFSGSKSGTSATLGITGLQTGDEADYYCGTWDSSLSAPWVFGGGTKVTVL
notes: as for B3
On to B4, for which, in assay [1], the binding result is “binds”.

B5: NYA-0082 (scFv, V domains shown)
VH: EVQLVESGGGVVQPGRSLTPSCSASGFSIRSYDIHWVRQAPGKGLEWVATISYDGSQKYFADSVKGRFTIFRDESENMVYLQMSGLRVEDTAVYHCARGSSGHYEAFDIWGQGTMVTVSS
VL: QSVLTQPPSVSAAPGQKVTISCSGSSSNIGNNYVSWYQRLPGTAPKLLIYDNNKRPSGIPDRFSGSKSGTSATLGITGLQTGDEADYYCGSWDSSLSAPWVFGGGTKVTVL
notes: as for B3
For B5, the binding result in [1] is “binds”.

B6: NYA-0001 (scFv)
scFv: GEVQLVESGGGVVQPGRSLTPSCSASGFSIRSYDIHWVRQAPGKGLEWVATISYDGSQKYFADSVKGRFTIFRDESENMVYLQMSGLRVEDTAVYHCARGSSGHYEAFDIWGQGTMVTVSSGGGGSGGGGSGGGGSQSVLTQPPSVSAAPGQKVTISCSGSSSNIGNNYVSWYQQLPGTAPKLLIYDNNKRPSGIPDRFSGSKSGTSATLGITGLQTGDEADYYCGTWDSSLSAPWVFGGGTKVTVLGAAAGAGGDYKDDDDKGAAAHHHHHH
notes: also called NYA-0001 tag adduct; NY-R119 expressed in a cultured mammalian cell
Consider B6, for which the “standardized gMFI” value amounted to 0.6 with 1F; 7.72 with 2M; 7.88 with 3A; 0.83 in the assay with 4A; 0.78 in the assay with 5A; 7.97 in the assay with 6L. For the same molecule, the “standardized gMFI” value in the assay with 7F is 0.97; with 8A it was 6.67; with 9A, 6.56.

B7: NYA-2027 (scFv)
scFv: GEVQLVESGGGVVQPGRSLTPSCSASGFSIRSYDIHWVRQAPGKGLEWVATISYDGSQKYFADSVKGRFTIFRDESENMVYLQMSGLRVEDTAVYHCARGSSGHYEAFDIWGQGTMVTVSSGGGGSGGGGSGGGGSQSVLTQPPSVSAAPGQKVTISCSGSSSNIGNNYVSWYQQLPGTAPKLLIYDNNKRPSGIPDRFSGSKSGTSATLGITGLQTGDEADYYCGSWDSSLSAPWVFGGGTKVTVLGAAAGAGGDYKDDDDKGAAAHHHHHH
With B7, the “standardized gMFI” value was determined as 0.57 in the assay with 1F; 7.84 with 2M; 9.91 with 3A; 0.99 in the assay with 4A; 0.75 in the assay with 5A; 7.85 in the assay with 6L. Besides, the “standardized gMFI” value was 5.41 in the assay with 7F, 9.47 with 8A and 6.9 with 9A.

B8: NYA-2060 (scFv)
scFv: GEVQLVESGGGLVQPGGSLRLSCAASGFSIRSYDIHWVRQAPGKGLEWVATISYDGSQKYYADSVKGRFTISRDESKNTLYLQMNSLRAEDTAVYHCARGSSGHYEAFDIWGQGTLVTVSSGGGGSGGGGSGGGGSQSVLTQPPSVSAAPGQKVTISCSGSSSNIGNWYVSWYQQLPGTAPKLLIYDNNKRPSGIPDRFSGSKSGTSATLGITGLQTGDEADYYCGTWDSSLSAPWVFGGGTKVTVLGAAAGAGGDYKDDDDKGAAAHHHHHH
notes: also called NYA-2060 tag adduct
Turning to B8, the “standardized gMFI” value came out at 0.52 with 1F; 6.93 with 2M; 5.51 with 3A; 0.73 with 4A; 0.7 with 5A; 7.94 with 6L. Further, the “standardized gMFI” value came out at 2.51 in the assay with 7F, 6.18 in the assay with 8A and 9.48 with 9A.

B9: NYA-2061 (scFv)
scFv: GEVQLVESGGGLVQPGGSLRLSCAASGFSIRSYDIHWVRQAPGKGLEWVATISYDGSQKYYADSVKGRFTISRDESKNTLYLQMNSLRAEDTAVYHCARGSSGHYEAFDIWGQGTLVTVSSGGGGSGGGGSGGGGSQSVLTQPPSASGTPGQRVTISCSGSSSNIGNWYVSWYQQLPGTAPKLLIYDNNKRPSGVPDRFSGSKSGTSASLAISGLQSEDEADYYCGTWDSSLSAPWVFGGGTKLTVLGAAAGAGGDYKDDDDKGAAAHHHHHH
notes: also called NYA-2061 tag adduct
As for B9, the “standardized gMFI” value in the assay with 1F was determined as 0.54; with 2M it was 7.17; in the assay with 3A, 4.73; with 4A, 0.59; with 5A, 0.66; in the assay with 6L, 7.13. The “standardized gMFI” value with 7F was determined as 2.04; with 8A, 5.22; with 9A, 9.16.
